Earlier results as cited in US7833964B2, “Methods of reducing visceral fat by increasing levels of insulin-like growth factor-I (IGF-I)” (Tercica, Inc., priority 2003, dated 2010).

Columns and labels:
[1] = molecular target: T1, placental insulin receptor (Homo sapiens, UniProt P06213); conditions: relative to the comparator named in the value; cited from earlier work
T1 construct: the placental insulin receptor; host or cells: placenta (endogenous receptor)

[2] = molecular target: T2, human placental Type I IGF receptor (Homo sapiens, UniProt P08069); conditions: relative to the comparator named in the value; cited from earlier work
T2 construct: the human placental Type I IGF receptor; host or cells: human placenta (endogenous receptor)

[3] = test system: Type I IGF receptor of rat and mouse cells; conditions: relative to IGF-I; cited from earlier work
Type 2 IGF receptor = conditions: relative to human IGF-I; cited from earlier work

Substance | affinity to the insulin receptor [1] | affinity to the Type I IGF receptor [2] | affinity to the Type I IGF receptor of rat and mouse cells [3] | affinity to the Type 2 IGF receptor (Type 2 IGF receptor)
(Leu^24)IGF-I: functional mutant of IGF-I described in Cascieri et al. 1988 | lower affinity than IGF-I | lower affinity than IGF-I | lower affinity than IGF-I | 
(Phe^23, Phe^24, Tyr^25)IGF-I: functional mutant of IGF-I described in Cascieri et al. 1988 | equipotent to human IGF-I | equipotent to human IGF-I |  | equipotent to human IGF-I
(Ser^24)IGF-I: functional mutant of IGF-I described in Cascieri et al. 1988 | lower affinity than IGF-I | lower affinity than IGF-I | lower affinity than IGF-I | 
